From patent US20080170994A1 (ARMAGEN TECHNOLOGIES, published 2008) come the findings set out here.

Assay [1] concerns the target T1, human insulin receptor (HIR) extracellular domain (ECD) (human, UniProt P06213 28-956, limits assumed).
T1 construct: extracellular domain; Solid phase antigen of the HIR ELISA; also called HIR ECD; purified human insulin receptor
The experiment in a line: ELISA on affinity purified HIR ECD. Here is the method: The affinity of the fusion antibody for binding to the human insulin receptor (HIR) extracellular domain (ECD) was measured with an ELISA using affinity purified HIR ECD obtained from medium conditioned by CHO cells permanently transfected with the HIR ECD gene. […] The 50% saturation of binding, ED₅₀, is 0.53±0.02 nM for the chimeric HIRMAb. The ED₅₀ of fusion antibody binding to the HIR is 1.0±0.1 nM (FIG. 35). […] The HIR at the BBB is an heterotetrameric molecule comprised of two alpha and two beta chains. […] There is specific binding of the [¹²⁵I]-fusion antibody to human brain capillaries in a time-dependent process, whereas binding of the [¹²⁵I]-mouse anti-Aβ antibody is constant with time, and is non-specific (FIG. 36B).
A general note: In an ELISA, binding on a coated surface is turned into a signal by an enzyme label.

Assay [2] concerns the target T2, Aβ^1-40 amyloid peptide (human, UniProt P05067 672-711).
T2 construct: domain: Aβ^1-40; Plated on 96-well plates in the ELISA and the IRMA; also called Aβ^1-40 peptide; 40 amino acid Aβ amyloid peptide of AD
Kind of assay: IRMA: competition with [125I]-murine anti-Aβ MAb on plated Aβ^1-40. Here is the method: (§1) FIG. 34. Aβ¹⁻⁴⁰ immunoradiometric assay (IRMA) measures the binding of the [¹²⁵I]-murine anti-Aβ MAb to Aβ¹⁻⁴⁰ that is plated in wells of a 96-well plate. The murine anti-Aβ MAb is the original murine MAb against Aβ purified from hybridoma conditioned medium. In the absence of competitors of binding, approximately 20% of the total [¹²⁵I]-anti-Aβ MAb is bound to the Aβ¹⁻⁴⁰. […] The affinity of the fusion antibody for Aβ¹⁻⁴⁰ is equal to the affinity of the original murine anti-Aβ¹⁻⁴⁰ MAb
(§2) The affinity of the fusion antibody for binding to Aβ¹⁻⁴⁰ was compared to the same affinity of the murine hybridoma generated anti-Aβ MAb with an immunoradiometric assay (IMRA). In this assay, the Aβ¹⁻⁴⁰ is plated in 96-well plates, and the binding of [¹²⁵I]-murine anti-Aβ MAb to the […] is measured. […] Therefore, the affinity of the fusion antibody for Aβ¹⁻⁴⁰ is identical to that of the original 150 kDa hetero-tetrameric murine anti-Aβ MAb. This was a surprising finding, since the affinity of a ScFv for the target antigen is generally much lower than for the full, tetrameric MAb molecule. Owing to the bivalency of the tetrameric MAb, the affinity for the antigen is higher than the affinity of the monomeric ScFv. The high affinity of the ScFv moiety of the fusion antibody for Aβ¹⁻⁴⁰ is attributed to the design of the fusion antibody molecule, which places the ScFv in a dimeric or bivalent conformation (FIG. 26).

Assay [3] deals with BBB insulin receptor of the Rhesus monkey (Rhesus monkey, UniProt Q28516 1-210). Kind of assay: cell-based or functional assay.
Assay [4] concerns the target T2, Aβ^1-40 amyloid peptide. Kind of assay: IRMA on plated Aβ^1-40.
Assay [5] concerns the target T2, Aβ^1-40 amyloid peptide. Kind of assay: IRMA: [125I]-murine anti-Aβ MAb on plated Aβ^1-40, unlabelled antibody as competitor. The protocol:
as §1
as §2, with “The high affinity of the ScFv moiety of the fusion antibody for Aβ¹⁻⁴⁰ is attributed to the design of the fusion antibody molecule, which places the ScFv in a dimeric or bivalent conformation (FIG. 26).” left out

B1: chimeric HIRMAb (chimeric monoclonal antibody to the human insulin receptor) (antibody, human IgG1, kappa, V domains shown)
VH: QVQLQQSGPELVKPGALVKISCKASGYTFTNYDIHWVKQRPGQGLEWIGWIYPGDGSTKYNEKFKGKATLTADKSSSTAYMHLSSLTSEKSAVYFCAREWAYWGQGTLVTVSA
VL: DIQMTQSPSSLSASLGERVSLTCRASQDIGGNLYWLQQGPDGTIKRLIYATSSLDSGVPKRFSGSRSGSDYSLTISSLESEDFVDYYCLQYSSSPWTFGGGTKMEIKR
Regarding B1, in assay [1], the EC50 (in general, the midpoint of the concentration-response curve) came out at 0.53 nM.

B2: anti-Aβ ScFv/chimeric HIRMAb fusion antibody (bispecific antibody, human IgG1, kappa)
heavy: not shown
light: DIQMTQSPSSLSASLGERVSLTCRASQDIGGNLYWLQQGPDGTIKRLIYATSSLDSGVPKRFSGSRSGSDYSLTISSLESEDFVDYYCLQYSSSPWTFGGGTKMEIKRTVAAPSVFIFPPSDEQLKSGTASVVCLLNNFYPREAKVQWKVDNALQSGNSQESVTEQDSKDSTYSLSSTLTLSKADYEKHKVYACEVTHQGLSSPVTKSFNRGEC
notes: also called fusion protein; HIRMAb-mAβScFv
Turning to B2, in assay [2], binding was put at a Kd of 24 nM. The same molecule yielded an EC50 in assay [1] of 1 nM. The “brain volume of distribution (VD) in Rhesus monkey at 3 hours after intravenous injection” value in assay [3] is more than 10 fold.

B3: Ala-499 form of the antibody fusion protein (S499A) (bispecific antibody, human IgG1, kappa)
heavy: not shown
light: B2 light
notes: also called fusion antibody with the S499A mutation
With B3, the Ki (in general, the dissociation constant of the complex between target and ligand, obtained from inhibition or displacement) in assay [2] is 271 nM. Also, in assay [4], the “fold decrease of affinity against the Ser-499 fusion antibody” value was determined as 8 fold.

B4: Ala-497 form of the antibody fusion protein (N497A) (bispecific antibody, human IgG1, kappa)
heavy: not shown
light: B2 light
notes: also called fusion antibody with the N497A mutation
Take B4: the inhibition constant Ki in assay [2] stood at 182 nM. Moreover, the “fold decrease of affinity against the Asn-497 fusion antibody” value in assay [4] is approximately 6 fold.

B5: murine anti-Aβ MAb (hybridoma generated) (antibody, V domains shown)
VH: QVQLQQSGAELVKPGATVKLSCKASGYSFNSHYIYWVKQRPGQGLEWIGEINPSNGAMNFNEKFKNKATLTVDKSSSTAYMQLSSLTSEDSAVYYCVRDPTSYWGQGTLVTVSA
VL: DVVMTQTPLSLPVSLGDQASISCRSSQSLVHSYGNTYLHWYLQKPGQSPKLLIYKVSNRFSGVPDRFSGSGSGTDFTLKISRVEAEDLGVYFCSQSTHVPYTFGGGTKLEIKR
notes: 150 kDa hetero-tetrameric mouse IgG (gamma heavy chain, kappa light chain) purified from hybridoma medium; also called mouse anti-Aβ MAb; mouse anti-Aβ antibody
B5: the Kd (in general, the constant that tells how readily two partners part at equilibrium) in assay [5] stood at 32 nM.
